Experimental data reported in article PMC3429473, “The Weak Complex between RhoGAP Protein ARHGAP22 and Signal Regulatory Protein 14-3-3 Has 1∶2 Stoichiometry and a Single Peptide Binding Mode” (PLoS ONE, 2012).
Like-named read-outs stand apart in the source and are kept apart here.

What was measured:
[1] = biological target: AG22 (1–422) S16D/S411D phosphomimic double mutant (human); test: SAXS titration; AG22 (1–422) S16D/S411D at 26.5 µM (1.25 mg/mL) mixed with 14-3-3 dimer at molar ratios 0.5, 1.0, 1.5 and 2.0; about 1 h on ice; data fitted as linear combinations of the profiles of the two proteins and of the cross-linked complex; Kd counted on the 14-3-3 dimer
[2] = biological target: AG22 (1-422) S16D/S411D (human); test: small-angle X-ray scattering (SAXS) titration; AG22 (1-422) S16D/S411D at 26.5 µM (1.25 mg/mL) pre-mixed with 14-3-3 at molar 14-3-3_(2):AG22 ratios of 0.5:1.0, 1.0:1.0, 1.5:1.0 and 2.0:1.0, about 1 hour on ice, measured at room temperature (295 K); scattering fitted as a linear combination of the profiles of 14-3-3_(2), AG22 and the cross-linked complex; Kd = (W_AG22 x W_14-3-3)/W_Complex for each titration point
AG22 (1–145) S16D = biological target: T1, AG22 (1–145) S16D (human); test: cross-linking; AG22 proteins (10 µM) and 14-3-3 (30 µM), alone or mixed, in 50 mM HEPES pH 8.6 with 3 mM BS3 at room temperature for 5 to 30 min; SDS-PAGE, Coomassie Blue; settings: both partners purified
T1 chain: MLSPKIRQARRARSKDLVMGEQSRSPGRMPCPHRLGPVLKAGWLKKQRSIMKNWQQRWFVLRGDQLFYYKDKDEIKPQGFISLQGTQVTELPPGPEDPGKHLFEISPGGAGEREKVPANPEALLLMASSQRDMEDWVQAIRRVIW

[3] = biological target: the molecule itself; test: as above
[4] = biological target: wild type AG22 (1–422) (human); test: as above
[5] = biological target: AG22 (1–422) S16D/S411D phosphomimic double mutant (human); test: as above
[6] = biological target: AG22 (1–422) S16D/S411D phosphomimic double mutant (human); test: cross-linking + SEC; 1:2 mixture cross-linked with BS3 for 30 min in 50 mM Hepes pH 8.6, purified by gel filtration, then analytical Superdex S200 10/300GL in 25 mM HEPES pH 7.5, 150 mM NaCl, 2 mM β-ME
[7] = biological target: AG22 (1-422) S16D/S411D (human); test: small-angle X-ray scattering (SAXS) titration; AG22 (1-422) S16D/S411D at 26.5 µM (1.25 mg/mL) pre-mixed with 14-3-3 at molar 14-3-3_(2):AG22 ratios of 0.5:1.0, 1.0:1.0, 1.5:1.0 and 2.0:1.0, about 1 hour on ice, measured at room temperature (295 K); scattering fitted as a linear combination of the profiles of 14-3-3_(2), AG22 and the cross-linked complex; Kd = (W_AG22 x W_14-3-3)/W_Complex for each titration point; remark: listed apart in the source
[8] = biological target: AG22 (1-422) S16D/S411D (human); test: as above; remark: listed apart in the source

B1: human 14-3-3 β (natural protein)
chain: MTMDKSELVQKAKLAEQAERYDDMAAAMKAVTEQGHELSNEERNLLSVAYKNVVGARRSSWRVISSIEQKTERNEKKQQMGKEYREKIEAELQDICNDVLELLDKYLIPNATQPESKVFYLKMKGDYFRYLSEVASGDNKQTTVSNSQQAYQEAFEISKKEMQPTHPIRLGLALNFSVFYYEILNSPEKACSLAKTAFDEAIAELDTLNEESYKDSTLIMQLLRDNLTLWTSENQGDEG
notes: human 14-3-3 β isoform, codon-optimized synthetic gene (GeneArt) in pET20b; calculated monomer mass 29.3 kDa; the printed monomer mass of 29.3 kDa would fit the whole protein with the tag; Dimer by cross-linking and SAXS; also called 14-3-3_(2); 14-3-3 β isoform; not shown: His6, C-terminal, kept
Kd [1]: 28 µM
Kd [2]: 34.2 µM
stoichiometry N (AG22 (1–145) S16D): 2 14-3-3 chains per AG22 molecule
stoichiometry N [3]: 2
stoichiometry N (14-3-3 chains per AG22 molecule) [4]: 2
stoichiometry N (14-3-3 chains per AG22 molecule) [5]: 2
stoichiometry N (14-3-3 chains per AG22 molecule) [6]: 2
Kd [7]: 27.4 µM
Kd ([7]; record 2): 30.6 µM
Kd [8]: 20.9 µM
